From patent US20180319883A1 (Stanford University, published 2018)

B1: KWAR23, monoclonal CD47-blocking anti-human SIRPα antibody (purified from hybridoma supernatant) (antibody, V domains shown)
VH: EVQLQQSGAELVKPGASVKLSCTASGFNIKDYYIHWVQQRTEQGLEWIGRIDPEDGETKYAPKFQDKATITADTSSNTAYLHLSSLTSEDTAVYYCARWGAYWGQGTLVTVSS
VL: QIVLTQSPAIMSASPGEKVTLTCSASSSVSSSYLYWYQQKPGSSPKLWIYSTSNLASGVPARFSGSGSGTSYSLTISSMEAEDAASYFCHQWSSYPRTFGAGTKLELK
notes: Mouse hybridoma antibody purified by protein G chromatography; also called KWAR23 antibody; intact KWAR23
B2: KWAR23 scFv HL (N-terminal heavy chain), monomer expressed in E. coli (scFv)
scFv: EVQLQQSGAELVKPGASVKLSCTASGFNIKDYYIHWVQQRTEQGLEWIGRIDPEDGETKYAPKFQDKATITADTSSNTAYLHLSSLTSEDTAVYYCARWGAYWGQGTLVTVSGGGGSGGGGSGGGGSQIVLTQSPAIMSASPGEKVTLTCSASSSVSSSYLYWYQQKPGSSPKLWIYSTSNLASGVPARFSGSGSGTSYSLTISSMEAEDAASYFCHQWSSYPRTFGAGTKLELK
notes: also called HL scFv; HL monomer
B3: KWAR23 scFv LH (N-terminal light chain), monomer expressed in E. coli (scFv)
scFv: QIVLTQSPAIMSASPGEKVTLTCSASSSVSSSYLYWYQQKPGSSPKLWIYSTSNLASGVPARFSGSGSGTSYSLTISSMEAEDAASYFCHQWSSYPRTFGAGTKLELKGTTAASGSSGGSSSGAEVQLQQSGAELVKPGASVKLSCTASGFNIKDYYIHWVQQRTEQGLEWIGRIDPEDGETKYAPKFQDKATITADTSSNTAYLHLSSLTSEDTAVYYCARWGAYWGQGTLVTVS
notes: also called LH scFv; LH monomer

Experiments:
[1] = target: T1, human SIRPα, endogenous, on THP-1 cells (human, UniProt P78324 31-504); assay: flow cytometry competition on THP-1 cells against 100 nM fluorescent CD47/streptavidin tetramers
T1 construct: whole, on cells; also called SIRP-alpha

[2] = target: T1, human SIRPα, endogenous, on THP-1 cells; assay: flow cytometry competition on THP-1 cells against CD47 tetramers

IC50 [1] | IC50 [2] | Binder
~0.27 nM | – | B1
– | ~35 nM | B2
– | ~35 nM | B3
